Assays:
[1] = target: hASCT2 receptor (human type 2 sodium-dependent neutral amino acid transporter) (human) (UniProt Q15758); experiment: soluble Env injected into SCID mice grafted with XChASCT2 cells; cells recovered, anti-RGS-His immunofluorescence
[2] = target: hASCT1 receptor (human) (UniProt P43007); experiment: soluble Env injected into SCID mice grafted with XChASCT1 cells; cells recovered, anti-RGS-His immunofluorescence
Sequence of hASCT1 receptor (human) (P43007 whole entry): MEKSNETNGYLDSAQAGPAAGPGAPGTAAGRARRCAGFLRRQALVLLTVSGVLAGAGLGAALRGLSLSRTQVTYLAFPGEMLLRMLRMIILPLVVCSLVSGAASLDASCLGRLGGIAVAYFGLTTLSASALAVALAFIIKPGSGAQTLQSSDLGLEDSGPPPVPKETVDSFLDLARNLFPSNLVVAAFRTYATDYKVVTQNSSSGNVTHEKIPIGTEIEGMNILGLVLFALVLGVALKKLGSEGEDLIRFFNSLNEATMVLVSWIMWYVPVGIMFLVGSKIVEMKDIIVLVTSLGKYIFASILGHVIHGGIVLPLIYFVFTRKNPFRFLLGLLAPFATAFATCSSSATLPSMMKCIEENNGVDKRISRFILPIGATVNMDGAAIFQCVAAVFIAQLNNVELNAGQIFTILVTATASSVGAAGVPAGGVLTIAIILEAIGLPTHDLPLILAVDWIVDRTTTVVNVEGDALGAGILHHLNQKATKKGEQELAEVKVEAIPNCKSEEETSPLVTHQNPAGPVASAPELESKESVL

Sequence of hASCT2 receptor (human type 2 sodium-dependent neutral amino acid transporter) (human) (Q15758 whole entry): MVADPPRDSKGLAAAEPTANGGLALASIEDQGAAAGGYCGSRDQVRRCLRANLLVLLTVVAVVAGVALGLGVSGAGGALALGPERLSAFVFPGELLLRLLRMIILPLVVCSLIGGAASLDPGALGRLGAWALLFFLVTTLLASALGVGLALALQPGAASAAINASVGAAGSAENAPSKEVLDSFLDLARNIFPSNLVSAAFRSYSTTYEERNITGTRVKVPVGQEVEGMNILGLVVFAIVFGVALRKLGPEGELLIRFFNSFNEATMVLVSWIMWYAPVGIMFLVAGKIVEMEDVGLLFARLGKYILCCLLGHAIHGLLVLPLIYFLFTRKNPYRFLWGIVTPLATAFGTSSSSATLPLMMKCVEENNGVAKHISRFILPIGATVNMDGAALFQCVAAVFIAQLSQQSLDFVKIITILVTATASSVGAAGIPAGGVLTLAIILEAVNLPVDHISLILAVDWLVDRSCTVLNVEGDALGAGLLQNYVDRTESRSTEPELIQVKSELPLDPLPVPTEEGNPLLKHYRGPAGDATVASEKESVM

Q: How did the NF/NT, Mean (fluorescent cells of 57 cells) [1] turn out when “soluble protein of plasmid 460 (envelope-spacer-His6) (from UniProt Q9UQF0 21-435) (ligand)” was run?
A: 23

Q: What about the NF/NT, Mean (fluorescent cells of 77 cells) [2] of the same substance?
A: 24

From patent publication US20160090402A1
